Experimental findings from US20190203229, “cis AND trans REQUIREMENTS FOR […] RESOLUTION OF HUMAN BOCAVIRUS 1” (University of Iowa Research Foundation, published 2019) are described below.

The data set addresses GST (UniProt P08515 P08515:1-218). Nature of the data set: EMSA; negative control. Conditions: label: 32P or biotin. For orientation: In EMSA bound probe runs differently from free probe, usually more slowly.

GST, sequence (P08515 whole entry, one chain of several): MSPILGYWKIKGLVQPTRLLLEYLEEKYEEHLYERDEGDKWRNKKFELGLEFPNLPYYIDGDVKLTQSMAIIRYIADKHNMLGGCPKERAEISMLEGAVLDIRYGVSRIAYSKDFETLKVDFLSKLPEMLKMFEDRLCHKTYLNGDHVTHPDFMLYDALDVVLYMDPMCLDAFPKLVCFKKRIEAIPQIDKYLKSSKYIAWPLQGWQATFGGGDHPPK

B1: B19V Ori (dsDNA)
DNA 1: GCCGCCGGTCGCCGCCGGTAGGCGGGACTTCCGGTACA
DNA 2: TGTACCGGAAGTCCCGCCTACCGGCGGCGACCGGCGGC
On to B1, for which the binding result is recorded as “no binding”.
